Measurements as given in US20220119541A1 (PHARMAEXPLORER, published 2022).
Where two headings read alike, the source gives them in different places.

T1: human GITR (full length, on cells) (human, UniProt Q9Y5U5 26-241)
T1 sequence (looked up): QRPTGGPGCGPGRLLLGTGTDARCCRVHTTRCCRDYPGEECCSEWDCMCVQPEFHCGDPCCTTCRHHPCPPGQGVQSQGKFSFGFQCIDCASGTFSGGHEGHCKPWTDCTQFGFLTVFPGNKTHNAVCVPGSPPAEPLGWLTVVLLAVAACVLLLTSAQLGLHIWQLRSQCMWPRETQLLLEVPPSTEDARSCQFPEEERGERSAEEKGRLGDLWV

T2: hGITR-ECD-hFc (human, UniProt Q9Y5U5 26-161)
T2 construct: ECD put first; also called immunogen A; human GITR extracellular domain protein with hFc tag; not shown: human IgG Fc fragment (hFc) of the pCpC vector
T2 chain: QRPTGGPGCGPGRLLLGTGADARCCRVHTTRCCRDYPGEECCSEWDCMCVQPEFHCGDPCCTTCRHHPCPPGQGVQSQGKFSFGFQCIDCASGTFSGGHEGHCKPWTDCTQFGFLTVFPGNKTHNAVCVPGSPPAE


Assays:
[1] = molecular target: T1, human GITR (full length, on cells); assay: cell-based or functional assay
[2] = molecular target: T1, human GITR (full length, on cells); assay: flow cytometry (FACS) on 293F-hGITR cells, MFI curve fit
Method: (§1) The pIRES plasmid with the monkey-derived GITR full-length gene was transfected into the HEK293 cell line to construct a HEK293 stable cell line containing monkey GITR (herein referred to as HEK293-cGITR stable cell line), wherein the database accession number of the monkey GITR nucleotide sequence is XP_005545180.1. The tool antibody Tab9H6v3 was constructed with reference to the patent (US_2015_0064204_A1). […] The medium was aspirated, and the cells were incubated with chimeric anti-GITR antibody or IgG1 isotype control antibody in PBS+2% FBS for 1 hour so that the antibody binds to the GITR protein expressed on the cell surface. Cells were collected and washed, and then incubated with anti-human antibody conjugated with fluorescent dye at 4° C. for 1 hour. Mean fluorescence intensity (MFI) of chimeric anti-GITR antibodies bound to cells expressing hGITR or cGITR was determined by flow cytometry. The EC50 of the fitting curve was calculated by GraphPad Prism software. The antibody to be tested can bind to human or monkey GITR protein on the cell surface. The data in the table is the average fluorescence intensity values of the cell populations measured by MFI.

[3] = molecular target: T3, monkey GITR (full length, on cells) (monkey); assay: flow cytometry (FACS) on 293F-cGITR cells, MFI curve fit
T3 construct: whole, on cells; also called cGITR
Method: as §1

hGITR-ECD-hFc [4] = molecular target: T2, hGITR-ECD-hFc; assay: SPR (Biacore T200), hGITR-ECD-hFc immobilised on CM5 chip, antibody as analyte
Method: The antigen hGITR-ECD-hFc was immobilized on the chip surface in manual mode using the running buffer HBS-EP+(10 mM HEPES, 150 mM NaCl, 3 mM EDTA, 0.05% P20, pH 7.4). First, a fresh mixture of 50 mM NHS and 200 mM EDC was used to activate the flow cell 4 of the tandem S CM5 sensor chip. The antigen was then diluted to 1 μg/ml with 10 mM NaAC (pH 5.0) and was injected into flow cell 4 for approximately 40 seconds. Finally, 1 M ethanolamine was used to block the remaining active coupling sites.
Buffer flow was maintained for 600 seconds to determine dissociation. To remove the test antibody from the surface, 10 mM Glycine-HCl (pH 1.5) was injected into flow cells 1 and 4 at a flow rate of 10 μ L/min for 30 seconds. The above steps were repeated for each concentration of continuously diluted antibodies.
The KD value of each antibody was evaluated using Biacore T200 evaluation software 3.0, where flow cell 1 was used as a reference flow cell.

cGITR-ECD-hFc = cGITR-ECD-hFc (rhesus; human, UniProt F7DDV8 14-149); assay: ELISA, cGITR-ECD-hFc coated on plate, HRP anti-human Fab detection
Sequence of cGITR-ECD-hFc (F7DDV8 entry or part of it): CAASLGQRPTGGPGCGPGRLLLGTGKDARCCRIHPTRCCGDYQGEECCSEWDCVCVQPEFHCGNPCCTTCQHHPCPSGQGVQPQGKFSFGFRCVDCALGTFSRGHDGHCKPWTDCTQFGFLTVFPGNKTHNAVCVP

hGITR-ECD-hFc [5] = molecular target: T2, hGITR-ECD-hFc; assay: ELISA, hGITR-ECD-hFc coated on plate, HRP anti-human Fab detection
Method: HGITR-ECD-hFc protein and cGITR-ECD-hFc protein were diluted to 1 μg/ml with PBS hydrochloric acid buffer (pH 7.2), and 100 μl dilution was added to 96-well ELISA microplate, and incubated at 4° C. overnight. The microplate was washed three times with 300 μl/well wash buffer PBST (PBS+0.05% Tween-20), 300 μl blocking buffer (PBST+1% BSA) was added to each well, and incubated at room temperature for 2 hours. The plate was washed three times, 100 μl, 10 μg/ml anti-GITR antibody was added to each well, and was incubated at 37° C. for 1 hour. The plate was washed three times, 100 μl horseradish peroxidase (HRP) labeled anti-human Fab secondary antibody was added to each well, and was incubated at 37° C. for half an hour. The plate was washed three times, 100 μl tetramethylbenzidine (TMB) was added to each well. After 15 minutes of color development, 50 μl 1N HCl termination solution was added to each well, and the OD450 value was read with a plate reader. The EC50 of the binding curve was calculated by GraphPad Prism software.

[6] = molecular target: T3, monkey GITR (full length, on cells); assay: flow cytometry (FACS) on 293F-cGITR cells, MFI curve fit; remark: listed apart in the source
Method: as §1

[7] = molecular target: T1, human GITR (full length, on cells); assay: cell-based or functional assay; remark: listed apart in the source
[8] = molecular target: T1, human GITR (full length, on cells); assay: flow cytometry (FACS) on 293F-hGITR cells, MFI curve fit; remark: listed apart in the source
Method: as §1

| Binder | Activation of NF-κB activity, EC50 (nM), Coupling [1] | Activation of NF-κB activity, EC50 (nM), Non-coupling [1] | EC50 [2] | EC50 [3] | Kd (hGITR-ECD-hFc [4]) | koff (hGITR-ECD-hFc [4]) | kon (hGITR-ECD-hFc [4]) | EC50 (cGITR-ECD-hFc) | EC50 (hGITR-ECD-hFc [5]) | EC50 [6] | Activation of NF-κB activity, EC50 (nM), Coupling (Crosslinking) [7] | Activation of NF-κB activity, EC50 (nM), Non-coupling (Non-Crosslinking) [7] | EC50 [8] |
| --- | --- | --- | --- | --- | --- | --- | --- | --- | --- | --- | --- | --- | --- |
| 3503-hab076 (antibody, V domains shown, also called 277C12G4; fully human anti-GITR antibody) VH: QVQLVESGGGVVQPGRSLRLSCAASGFTFSSYGMHWVRQAPGKGLEWVAVIWYETSNKYYADSVKGRFTISRDNSKNTLYLQMNSLRAEDTAVYYCARYGASSGWYWYFDLWGRGTLVTVSS VL: DIQLTQSPSFLSASVGDRVTITCRASQGISSYLAWYQQKPGKAPKLLIYAASTLQSGVPSRFSGSGSGTEFTLTISSLQPEDFATYCCQQLNSYPFTFGQGTKLEIK | 1.33 nM | 0.127 nM | 173 pM | 580 pM | 1030 pM | 0.000684 s⁻¹ | 664000 M⁻¹ s⁻¹ | 55.1 pM | 59.3 pM |  |  |  |  |
| 3503-mAb070 (antibody, V domains shown, Chimeric antibody purified from hybridoma supernatant of Harbour H2L2 mice: human variable regions with rat constant regions; also called 272G5E1; chimeric anti-GITR antibody) VH: QVQLVESGGGVVQPGRSLRLSCAASGFTFSSYGMHWVRQAPGKGLEWVAVIWYETSNKFYVDSVKGRFTISRDNSKNTLYLQMNSLRAEDTAVYYCARYGASSGWYWYFDLWGRGTLVTVSS VL: DIQLTQSPSFLSASVGDRVTITCRASQGISSFLAWYQQKPGKAPKLLIYAASTLQSGVPSRFSGSGSGTEFTLTISSLQPEDFATYCCQQLNSYPFTFGQGTKLEIK |  |  |  |  |  |  |  |  |  | 198 pM | > 0.09 nM | 0.062 nM | 358 pM |
| 3503-mAb064 (antibody, V domains shown, Chimeric antibody purified from hybridoma supernatant of Harbour H2L2 mice: human variable regions with rat constant regions; also called 265G9A11; chimeric anti-GITR antibody) VH: QVQLVESGGGVVQPGRSLRLSCAASGFTFSSYGMHWVRQAPGKGLEWVAVIWYETSNKYYADSVKGRFTISRDNSKNTLYLQMNNLRAEDTAVYYCARYGGNSGWYWYFDLWGRGTLVTVSS VL: DIQLTQSPSFLSASVGDRVTITCRASQGISSFLAWYQQKPGTAPKLLIYAASTLQSGVPSRFSGSGSGTEFTLTISSLQPEDFATYCCQQLNSYPFTFGQGTKLEIK |  |  |  |  |  |  |  |  |  | 404 pM | 0.101 nM | > 0.2 nM | 385 pM |
| 3503-mAb076 (antibody, V domains shown, Chimeric antibody purified from hybridoma supernatant of Harbour H2L2 mice: human variable regions with rat constant regions; also called 277C12G4; chimeric anti-GITR antibody) VH: QVQLVESGGGVVQPGRSLRLSCAASGFTFSSYGMHWVRQAPGKGLEWVAVIWYETSNKYYADSVKGRFTISRDNSKNTLYLQMNSLRAEDTAVYYCARYGASSGWYWYFDLWGRGTLVTVSS VL: DIQLTQSPSFLSASVGDRVTITCRASQGISSYLAWYQQKPGKAPKLLIYAASTLQSGVPSRFSGSGSGTEFTLTISSLQPEDFATYCCQQLNSYPFTFGQGTKLEIK |  |  |  |  |  |  |  |  |  | 226 pM | > 0.27 nM | > 0.09 nM | 152 pM |
